Consider one substance from patent US20070237759A1.

Where only a bound is given, the exact number is not on record here.

Assay [1] has as its target PAR-2 expressed on cells, species not stated (Homo sapiens (Human)) (UniProt P55085). Briefly: cell-based or functional assay.
Assay [2] concerns the target human PAR-2 (proteinase activated receptor-2) (human) (UniProt P55085). Briefly: cell-based or functional assay.

Substance SAM11 monoclonal antibody to PAR-2 yielded an IC50 KNRK, FLIPR Ca2+ mobilization in assay [1] of over 2 µM. In assay [2], this substance showed an IC50 HCT-116, FLIPR Ca2+ mobilization of over 2 µM.
